# Laboratory results taken from patent US20250027068.
# Molecular target: pooled human IgG
Protein,Enzyme Activity Endpoint Assay (purified): Fab'2,Enzyme Activity Endpoint Assay (purified): Fc,Enzyme Activity Endpoint Assay (purified): IgG,Enzyme Activity Endpoint Assay (purified): scIgG,Enzyme Activity Endpoint Assay: Fab′2,Enzyme Activity Endpoint Assay: Fc,Enzyme Activity Endpoint Assay: IgG,Enzyme Activity Endpoint Assay: scIgG
PRT-145 (protein) MANQEIRYSEVTPYHITSVWTKGVTPPANFTQGEDVFHAPYVANQGWYDITKTFNGKDDLLCGAATAGNMLHWWFDQNKDQIKRYLEEHPEKQKINFNGEQMFDVKEAIDTKNHQLDSKLFEYFKEKAFPYLSTKHLGVFPDHVIDMFINGYRLSLTNHGPTPVKEGSKDPRGGIFDAVFTRGDQSKLLTSRHDFKEKTLNTISQLIKQELQSGKALGLSHTYANVRINHVINLWGADFDAEGNLEAIYVTDSDSNASIGMKKYFVGKNSAGKVAISAKEIKEDNIGAQVLGLFTLSTGQDSWNQTN,735 ng/µL,207 ng/µL,0 ng/µL,0 ng/µL,–,–,–,–
PRT-146 (protein) MANQEIRYSEVTPYHIKTVWTKGVTPPANFTQGEDVFHAPYVANQGWYDITKTFNGKDDLLCGAATAGNMLHWWFDQNKDQIKRYLEEHPEKQKINFNGEQMFDVKEAIDTKNHQLDSKLFEYFKEKAFPYLSTKHLGVFPDHVIDMFINGYRLSLTNHGPTPVKEGSKDPRGGIFDAVFTRGDQSKLLTSRHDFKEKTLNDISQLIKQELQSGKALGLSHTYANVRINHVINLWGADFDAEGNLEAIYVTDSDSNASIGMKKYFVGKNSAGKVAISAKEIKEDNIGAQVLGLFTLSTGQDSWNQTN,672 ng/µL,215 ng/µL,0 ng/µL,0 ng/µL,–,–,–,–
PRT-147 (protein) MANQEIRYSEVTPYHIKIVWTKGVTPPANFTQGEDVFHAPYVANQGWYDITKTFNGKDDLLCGAATAGNMLHWWFDQNKDQIKRYLEEHPEKQKINFNGEQMFDVKEAIDTKNHQLDSKLFEYFKEKAFPYLSTKHLGVFPDHVIDMFINGYRLSLTNHGPTPVKEGSKDPRGGIFDAVFTRGDQSKLLTSRHDFKEKTLNDISQLIKQELQSGKALGLSHTYANVRINHVINLWGADFDAEGNLEAIYVTDSDSNASIGMKKYFVGKNSAGKVAISAKEIKEDNIGAQVLGLFTLSTGQDSWNQTN,723 ng/µL,206 ng/µL,0 ng/µL,0 ng/µL,–,–,–,–
PRT-13 (protein) MANQEIRYSEETPYHVTSVWTKGVTPPANFTQGEDVFHAPYKANQGWYDITKTFNGKDDLLCGAATAGNMLHWWFDQNKDQIEAYLKEHPEKQKINFNGEQMFDVKEAIDTKDDQTNSKLFEYFKEKAFPYLSTKHLGVFPDHVLDMFINGYRLSLTNHGPTPVKEGSKDPRGGIFDAVFTRGDQSKLLTSRHDFKEKTLKEISDLIKQELTEGKALALSHTYANVRINHVINLWGADFDSNGNLEAIYVTDSDSNASIGMKKYFVGVNSAGKVAISAKEIEDDNIGAQVLGLFTLSTGQDIWNQTN,–,–,–,–,2 ng/µL,74 ng/µL,12 ng/µL,66 ng/µL
PRT-148 (protein) MANQEIRYSEVTPYHVTSVWTKGVTPPANFTQGEDVFHAPYVANQGWYDITKTFNGKDDLLCGAATAGNMLHWWFDQNKDQIKRYLEEHPEKQKINFNGEQMFDVKEAIDTKNHQLDSKLFEYFKEKAFPYLSTKHLGVFPDHVIDMFINGYRLSLTNHGPTPVKRQSKDPRGGIFDAVFTRGDQSKLLTSRHDFKEKNLKEISDLIKKELTEGKALGLSHTYANVRINHVINLWGADFDSNGNLKAIYVTDSDSNASIGMKKYFVGVNSAGKVAISAKEIKEDNIGAQVLGLFTLSTGQDSWNKTN,764 ng/µL,203 ng/µL,0 ng/µL,0 ng/µL,–,–,–,–
PRT-150 (protein) MANQEIRYSEVTPYHVTSVWTKGVTPPANFTQGEDVFHAPYVANQGWYDITKTFNGKDDLLCGAATAGNMLHWWFDQNKDQIKRYLEEHPEKQKINFNGEQMFDVKEAIDTKNHQLDSKLFEYFKEKAFPYLSTKHLGVFPDHVIDMFINGYRLSLTNHGPTPVKRQEKDPRGGIFDAVFGRGDQTKLLTSRHDFKEKNLKEISDLIKKELTEGKALGLSHTYANVRINHVINLWGADFDSNGNLKAIYVTDSDSNASIGMKKYFVGVNSAGKVAISAKEIKEDNIGAQVLGLFTLSTGQKSWNKTN,612 ng/µL,161 ng/µL,0 ng/µL,0 ng/µL,–,–,–,–
PRT-154 (protein) MANQEIRYSEVTPYHVTSVWTKGVTPPANFTQGEDVFHAPYVANQGWYDITKTFNGKDDLLCGAATAGNMLHWWFDQNKTQIEAYLKKHPEKQKINFNGEQMFDVKEAIDTKNHQLDSKLFEYFKEKAFPYLSTKHLGVFPDHVIDMFINGYRLSLTNHGPTPVKEGSKDPRGGIFDAVFTRGDQSKLLTSRHDFKEKNLKEISDLIKKELTEGKALGLSHTYANVRINHVINLWGADFDSNGNLKAIYVTDSDSNASIGMKKYFVGVNSAGKVAISAKEIKEDNIGAQVLGLFTLSTGKKSWEKTN,733 ng/µL,191 ng/µL,0 ng/µL,0 ng/µL,–,–,–,–
PRT-153 (protein) MANQEIRYSEVTPYHVTSVWTKGVTPPANFTQGEDVFHAPYVANQGWYDITKTFNGKDDLLCGAATAGNMLHWWFDQNKTQIERYLKKHPEKQKINFNGEQMFDVKEAIDTKNHQLDSKLFEYFKEKAFPYLSTKHLGVFPDHVIDMFINGYRLSLTNHGPTPVKEGSKDPRGGIFDAVFTRGDQSKLLTSRHDFKEKNLKEISDLIKKELTEGKALGLSHTYANVRINHVINLWGADFDSNGNLKAIYVTDSDSNASIGMKKYFVGVNSAGKVAISAKEIKEDNIGAQVLGLFTLSTGKDSWKKTN,619 ng/µL,190 ng/µL,0 ng/µL,0 ng/µL,–,–,–,–
PRT-157 (protein) MANQEIRYSEVTPYHVTSVWTKGVTPPEDFTQGEDVFHAPYKANQGWYDITKTFNGKDDLLCGAATAGNMLHWWFDQNKDQIKRYLEEHPEKQKINFNGEQMFDVKEAIDTKNHQLDSKLFEYFKEKAFPYLSTKHLGVFPDHVIDMFINGYRLSLTNHGPTPVKEGSKDPRGGIFDAVFTRGDQSKLLTSRHDFKEKNLKEISDLIKKELTEGKALGLSHTYANVRINHVINLWGADFDSNGNLKAIYVTDSDSNASIGMKKYFVGVNSAGKVAISAKEIKEDNIGAQVLGLFTLSTGQDSWNQTN,806 ng/µL,198 ng/µL,0 ng/µL,0 ng/µL,–,–,–,–
PRT-156 (protein) MANQEIRYSEVTPYHVTSVWTKGVTPPTDFTQGEDVFHAPYKANQGWYDITKTFNGKDDLLCGAATAGNMLHWWFDQNKDQIKRYLEEHPEKQKINFNGEQMFDVKEAIDTKNHQLDSKLFEYFKEKAFPYLSTKHLGVFPDHVIDMFINGYRLSLTNHGPTPVKEGSKDPRGGIFDAVFTRGDQSKLLTSRHDFKEKNLKEISDLIKKELTEGKALGLSHTYANVRINHVINLWGADFDSNGNLKAIYVTDSDSNASIGMKKYFVGVNSAGKVAISAKEIKEDNIGAQVLGLFTLSTGQDSWNQTN,772 ng/µL,205 ng/µL,0 ng/µL,0 ng/µL,–,–,–,–
PRT-152 (protein) MANQEIRYSEVTPYHVTSVWTKGVTPPANFTQGEDVFHAPYVANQGWYDITKTFNGKDDLLCGAATAGNMLHWWFDQNKTQIERYLKKHPEKQKINFNGEQMFDVKEAIDTKNHQLDSKLFEYFKEKAFPYLSTKHLGVFPDHVIDMFINGYRLSLTNHGPTPVKEGSKDPRGGIFDAVFTRGDQSKLLTSRHDFKEKNLKEISDLIKKELTEGKALGLSHTYANVRINHVINLWGADFDSNGNLKAIYVTDSDSNASIGMKKYFVGVNSAGKVAISAKEIKEDNIGAQVLGLFTLSTGKDSWEKTN,614 ng/µL,158 ng/µL,0 ng/µL,0 ng/µL,–,–,–,–
PRT-149 (protein) MANQEIRYSEVTPYHVTSVWTKGVTPPANFTQGEDVFHAPYVANQGWYDITKTFNGKDDLLCGAATAGNMLHWWFDQNKDQIKRYLEEHPEKQKINFNGEQMFDVKEAIDTKNHQLDSKLFEYFKEKAFPYLSTKHLGVFPDHVIDMFINGYRLSLTNHGPTPVKRQTKDPRGGIFDAVFGRGDQTKLLTSRHDFKEKNLKEISDLIKKELTEGKALGLSHTYANVRINHVINLWGADFDSNGNLKAIYVTDSDSNASIGMKKYFVGVNSAGKVAISAKEIKEDNIGAQVLGLFTLSTGQKSWNKTN,831 ng/µL,0 ng/µL,0 ng/µL,0 ng/µL,–,–,–,–
PRT-151 (protein) MANQEIRYSEVTPYHVTSVWTKGVTPPANFTQGEDVFHAPYVANQGWYDITKTFNGKDDLLCGAATAGNMLHWWFDQNKDQIKRYLEEHPDKQKINFNGEQMFDVKEAIDTKNHQLDSKLFEYFKEKAFPYLSTKHLGVFPDHVIDMFINGYRLSLTNHGPTPVKRQTKDPRGGIFDAVFGRGDSTKLLTSRHDFKEKNLKEISDLIKKELTEGKALGLSHTYANVRINHVINLWGADFDSNGNLKAIYVTDSDSNASIGMKKYFVGVNSAGKVAISAKEIKEDNIGAQVLGLFTLSTGQKSWNKTN,521 ng/µL,137 ng/µL,0 ng/µL,0 ng/µL,–,–,–,–
PRT-155 (protein) MANQEIRYSEVTPYHVTSVWTDGVTPPANFTQGEDVFHAPYVANQGWYDITKTFNGKDDLLCGAATAGNMLHWWFDQNSTQIEAYLKKHPEKQKINFNGEQMFDVKEAIDTKNHQLDSKLFEYFKEKAFPYLSTKHLGVFPDHVIDMFINGYRLSLTNHGPTPVKEGSKDPRGGIFDAVFTRGDQSKLLTSRHDFKEKNLKEISDLIKKELTEGKALGLSHTYANVRINHVINLWGADFDSNGNLKAIYVTDSDSNASIGMKKYFVGVNSAGKVAISAKEIKEDNIGAQVLGLFTLSTGKKSWEKTN,751 ng/µL,197 ng/µL,0 ng/µL,18 ng/µL,–,–,–,–
